{
  "source": "the DeepSol protein solubility set",
  "data": [
    {"experiment": "soluble on expression in E. coli; label from the status in PepcDB or PDB records", "values": [
      {"sequence": "AHHHHHHGSLIVVRPGRKKNELEAFIIENPPEKLSQRRNLKADRVVRLIMRDNRLFKALEGSQYLNPKEVERALRNSRIVLVNANEWEEYFKKRLMNKRVEKADICRLCLLNGKITVLTEGNRIRYRDEYICESCAEEELKRELRFRFNSIGMLEQAKKLLERFRDLDKVISIFDPSFDPTKHPEITKWDELKAKHIRVEKMHIDELNIPEEFKKVLKAEGINELLPVQVLAIKNGLLEGENLLVVSATASGKTLIGELAGIPKALKGKKMLFLVPLVALANQKYEDFKRRYSKLGLKVAIRVGMSRIKTKEEPIVLDTGTDAHIIVGTYEGIDYLLRAGKKIGNVGTVVIDEIHMLDDEERGARLDGLIARLRKLYSNAQFIGLSATVGNPQELARKLGMKLVLYDERPVDLERHLIIARNESEKWRYIAKLCKAEAMRKSEKGFKGQTIVFTFSRRRCHELASFLTGQGLKAKAYHSGLPYVQRKLTEMEFQAQMIDVVVTTAALGAGVDFPASQVIFESLAMGNKWITVREFHQMLGRAGRPQYHEKGKVYIIVEPGKKYSAQMEGTEDEVALKLLTSPIEPVIVEWSDEFEEDNVLAHACVFNRLKVIEEVQSLCLGANQSAKNVLEKLMEKGLVKIYGDKVEATPYGRAVSMSFLLPREAEFIRDNLESTDPIEIAIKLLPFENVYLPGSLQREIESAVRGKISSNIFSSSFASVLEELDKIIPEISPNAAERLFLIYQDFFNCPEQDCTEFAMERIGRKIIDLRREGYEPSKISEHFRKVYALILYPGDVFTWLDGIVRKLEAIERIARVFNKRRVVEDTIRVRREIEEGKILKGERR", "soluble on expression in E. coli": "not soluble"},
      {"sequence": "MGSDKIHHHHHHQPIPDMAKAQTAALNSITAADLSAYLHIVASDSMEGRATGEAGQKRTALYLADKFKEFGLSPAVPTAVDKSYFQKFSLVEKTWKEVWLKVGNKQKEFLKDFYAYGDVQLPEATAMKIVCAGYGIEARNYSDYTNLDVKDKGVIIFTGEPFKDSVSLVTKTKQSSTWANDWRAKADLAYKKGAKAVFIIVGNTDTDFETRLAALKDHLNAPSMAFTHKKKASAFFVPASLAAEMLKSTPDALASYKKNRTGTNTPYPFKSAKVIAKAGVTERTVETENVLAVIEGSRYPEEIVVLTAHYDHLGIENGQICYGADDDGSGTVALLEIAQAFSIAKSLGHGPARTILFMPVTGEERGLMGSEYYTDKPVFPLKNTVADLNIDMIGRVDAAHPNVIDENYVYIIGDNRLSSELHTLSENANTGWQGPKIVLDYTYNSFDDPNRFYYRSDHYNFAKNNIPVIFYFSGIHADYHKPTDTVDKIRFDKMAKITQLVFLTAWQLANMDHRLVVDRTE", "soluble on expression in E. coli": "not soluble"},
      {"sequence": "MDKLKIIMEKGTERLKRGFAKMVKGGVIMDVTNAEQARIAEEAGAVAVMALHKVPADIRKAGGVARMAPVEKIQEIMDAVTIPVMAKCRIGHEAEARILEALGVDMIDESEVLTPADPFFHIYKKKFTAPFVCGARNLGEAVRRIWEGAAMIRTKGEAGTGNIIEAVRHVRLVNENIRLIQRMTDEEIYGVAEKFAEPYLRLAFSVKEISGLPKRVLENEPIYEGFTYREIVEDIYKILLEIKKLGRLPVVNFAAGGVATPADAALMMAMGMDGVFVGSGIFKSSNPPKMARAIVEAVNHWDEPDVLAEISREIGEPMRGQAIEELQVRMEERGILEHHHHHH", "soluble on expression in E. coli": "not soluble"},
      {"sequence": "MKQPEEELQETLTELDDRAVVDYLRHHPEFFIRNAHAVEAMRVPHPVRGTVSLVEWHMARARNHINVLEENMTLLMEQAHANESLFYRLLHLQSRLVAADSLDEMLVRFHRWARDLGLAGATLRLFPDRWRLGAPSRYTHLALNRQAFEPLRIQRLGQSQHYLGPLNGPELLVVLPEAKAVGSVAMSMMGSDGGLGVILFSSRDPHHYQPGQGTQLLQEIALMLPELLERWIKRVLEHHHHHH", "soluble on expression in E. coli": "not soluble"},
      {"sequence": "SGCFGCFSPEVDDDLKPSKPNYHSSDESSGADARRKVAPLATDGGNGYAHSFTFKDLSVATGYFNEANFIGEGGFGKVYKGKINGQMVAVKQLTRDGVQGRNEFLVEVLMLTVLNHPHLVSLVGFCAQGDERLLVYEYMPFGSLESHLFDVPLGKQPLDWNTRMRIAVGVAEGLSYLHNVADPPIIYRDMKAANILLDEDYRPKLSDFGLAKVGPVGDRTHVSTRVMGTYGYCAPDYVVSGKLTMKSDIYSFGVLLLELITGRRIYDASRPKPEQSLLTWSRPFLHDKRKFYRLADPALHGCYPTSALNQLVVISIMCLQDQPHVRPIISDVVIGLNHVASQPYVPERSSVSLSSPARCGSPQYAGTPSRRRGGRRVAQYA", "soluble on expression in E. coli": "soluble"},
      {"sequence": "METTHSLTTDNAPTEDQPILSVTDLHMVSGTHLPELKIYAGLSLVHCGRENSATTLSMTLAGRMKPISGTIELKVQDSDKVLTTPRQLHKAVALAGVPELDSLERLVPVTAAVREQLAWSQPWYRRVPRDVTKSETFINAAKLLDLPNSKEFARQSIGDLDPLTRFRLRIALALIARPHTDLLIVDDIDQIRSLRLRADLLRELKNIAASIPVVAMSANDDVDKIADHEIHVAGALQRKQKAKA", "soluble on expression in E. coli": "not soluble"},
      {"sequence": "MGSDKIHHHHHHMDLNEIIEKLKDILSEEKEGQKVLDRDVALALHIHPQSFACMKSRQKIPYEEILAFCAKRKISANWLFYNQAPESLIDTTNQYCYIRYFSQVHASAGGGAFNDTEACERIKLDAFWVERLGGEKEIKQIEAIAVTGDSMEPTLEDGDLIFIHRQKRQISKGGIFVIQTPHGIFVKRLQERLDGGVDILSDNSLYPTQTLERDGIEVIGRVVGALKNLE", "soluble on expression in E. coli": "not soluble"},
      {"sequence": "MAAGESMAQRMVWVDLEMTGLDIEKDQIIEMACLITDSDLNILAEGPNLIIKQPDELLDSMSDWCKEHHGKSGLTKAVKESTVTLQQAEYEFLSFVRQQTPPGLCPLAGNSVHADKKFLDKHMPQFMKHLHYRIIDVSTVKELCRRWYPEDYEFAPKKAASHRALDDISESIKELQFYRNNIFKKKTDEKKRKIIENGETEKPVS", "soluble on expression in E. coli": "soluble"},
      {"sequence": "MDGFQLGNNSPKEITVFCDESRPEALRAASITQRYLCIGSIWVDRERVREVNEEIRALQIKYSKMGEVKWGKVSPSSIQFNCELIDLFFDERFNLQFRAIVVDNQKVDLSYHNNDQELGFYKFYYQMLKHKLINGCSYRIYCDLKTNKMRGRASTLEHYLQTYCLGSVEMVQLLPSNDLPLMQLTDLLLGAVSTKFNFRIPKSPAKNEVISTIERHIGHQIQPTRKNEQKFNVFCIEPGMGR", "soluble on expression in E. coli": "not soluble"},
      {"sequence": "MKIAALYDIHGNYPALKEVLKQVKKLSPDLVVLGGDLIAGPMPLETLSLLKHVSTTFKTVGIMGNNDQDIVDIYAKKRVGLSRKATEQLTWIANQLSYKQVSFLRNLLPSISIGNYFFCHAVKNDNTTVFSPQQNKAYIETLFKGVQESYIICGHTHIQFELSLPNKKIINAGSIGMPFSNQFGAQWLWLDDNRIEYKRTIFNQQAAIQLISQTEYPFKNEFLEHHHHHH", "soluble on expression in E. coli": "not soluble"},
      {"sequence": "SLRVMLPNKKALEIIRKYMKIYNGKNEKDIKERLIKELKEEHVLVETEDGTYTLKAEDEEEMMHSKVGALKEAIYKFAKPSKITDLSNPRVLDLCSGMGYNAIAALHYNKNAEIDMVEICEEVLFLTLFLDIPYKEHEIIKDKVREYFLNKIGIEYKSDYDNINLYVGDARKFIIKSDKKYNVVFHDAFSPKRDPTLYTYDFLKEIYKRMEDNGVLISYSSAIPFRSALVDCGFVISEKESVGRKRGITLAYKNPNFKPNRINEVDERVIALSVIALPYRDETLSLTKDKIIEDREERREKLKEKLIKIGKYLSTKQIKKGNIPEEILKIQKEDLNSSEIIKKMRLKFFKDANIFIL", "soluble on expression in E. coli": "soluble"},
      {"sequence": "MGSDKIHHHHHHSDEEDGGSGGNLIYGGVSVSQEVLAHKPMLEKYAREYGIEEYLNVLLAIIQVESGGTLEDVMQSSESLGLPPNSLSTEESIKQGCKYFSELLAAAETKGCDLNSVIQSYNYGGGFLDYVAGHGKKYTFELAESFARDKSGGKKVTYTNPVAVEKNGGWRYSYGNMFYVLLVSQYLTVAQFDDETVQAIMEEALKYEGWTYVYGGDSPSTSFDCSGLVQWCYGKAGIALPRTAQEQYNVTQHIPLSEAKAGDLVFFHSTYNAGTYITHVGLYVGNNRMYHAGNPIGYADLTGSYWQQHLAGAGRIKQ", "soluble on expression in E. coli": "not soluble"},
      {"sequence": "MGSDKIHHHHHHMLRLSRELEVGEATVKRWLAGKGLTIDRLERLAGLCGMVLGDLVREAEEAPGVLAHELTLAQERALSSNIFLSFLFMTILNGIQPDETAADFSVPPREMEAALTRLERLALIDRLRSGRVRPLVDRNMVFRKLPLRNLFETHMKRVFFELDYGAPETIYTSEVVKLSVAGAAQLAELLERFRGEVQSLADRDAEKANKDRDWFGVLCVMRPLEMDPIRNAWWELS", "soluble on expression in E. coli": "not soluble"},
      {"sequence": "MIEGHGDDSYKYRHPIRSNFSSNVYNKVNLDGLRAHLCGRISAISAYPEPEPYTLEARLADRHALPAASVCVTNGATEAIYLIAQTFRGTNTAILMPTFSEYADACRMHGHKVTSLYTLDAVPEDVRMVWLCNPNNPTGEVRDKKYLTELIAKHPRVCFVIDQSYEYFTLKELFTAQEAAGFPNVILLHSMTKRYAIPGLRLGYVTAHPGLIGRLRTNRMPWSVNQLAIEAGLYLLSEGIPAGLSMKDYLAECARLKSSLEAIGGLEVWPTDTHFMLVCLRFGKAAALKEYLAREEGILIRDASNFEGLDERFFRIATQTPEENDELVGAIAKWMAE", "soluble on expression in E. coli": "not soluble"},
      {"sequence": "MGSDKIHHHHHHMSSYVVSQEDVKNFLNLPSMNDQEGISFAYATDPDALAKLIPAPLKLVAPVVCGYVVHMGKPSFGGPYLEQTLFALVSYKDKMMGSYPLTLLLHGPGAEAGLVAGREGAGIPKKLADHIELRRNDNSASATVERHGKTLLSVDWEAGDVNDPSILQTFGSQFALNKESEMNSFFFTHDLVQDKQGANHFENVELVATQMKSLADRVEPGKLSIQLASTEDDPFGELPVLKPLGAMWYHFATSTMFNTLHLEQVDADKTAPYLITGRYDRSMMNPLATTYII", "soluble on expression in E. coli": "not soluble"},
      {"sequence": "EAPLLYGDSSPEIVLVGHGSTYGVIKEIVDIFSKDKKIAMMHFSQIYPFPERDRFDYIEFLKNANLVISVENNATGQFAKLMRAETGFEFARQILKYDGRPFTIEKLKEEIDACL", "soluble on expression in E. coli": "not soluble"},
      {"sequence": "SMLSTEGREGFVVKVRGLPWSCSAEEVMRFFSDCKIQNGTSGVRFIYTREGRPSGEAFVELESEDEVKLALKKDRETMGHRYVEVFKSNSVEMDWVLKHTGPNSPDTANDGFVRLRGLPFGCSKEEIVQFFSGLEIVPNGMTLPVDFQGRSTGEAFVQFASQEIAEKALKKHKERIGHRYIEIFKSSRAEVRTHYDPPRKLMTMQRPGPYDRPGAGRGYNSIGRGAGFERMRRGAYGGGYGGYDDYGGYNDGYGFGSDRFGRDLNYCFSGMSDHRYGDGGSSFQSTTGHCVHMRGLPYRATENDIYNFFSPLNPMRVHIEIGPDGRVTGEADVEFATHEDAVAAMAKDKANMQHRYVELFLNSTAGTSGGAYDHSYVELFLNSTAGASGGAYGSQMMGGMGLSNQSSYGGPASQQLSGGYGGGYGGQSSMSGYDQVLQENSSDYQSNLA", "soluble on expression in E. coli": "not soluble"},
      {"sequence": "MYFVDRTAVVLKPTARFLEWLKSTDENMPDLTIEQLRANCSVFLVPQFDEPEAVVSYFDERYRQIFEAELAGWDIDKDKWPQDMGLKAFWEFFDIEIHDIVLNMEEAELNITPVFDNMM", "soluble on expression in E. coli": "soluble"},
      {"sequence": "INIEIAYAFPERYYLKSFQVDEGITVQTAITQSGILSQFPEIDLSTNKIGIFSRPIKLTDVLKEGDRIEIYRPLLADPKEIRRK", "soluble on expression in E. coli": "not soluble"},
      {"sequence": "MKKFDVAIVGGGLAGLTASIYLAKAGRKVIVLEKSSRFGGRGMTINKNGICMNLGAHALYRGGAAFLTFNELGMNLPGGIPSTKAHGIWKGDIFTIPTDFRSILSTPLLSWSAKVQFSRLMILLGNLDVGEVPKMSLTTWAEHEIKDPMVRNIFYALCRTTTYTFAPTIQLASSVLKQIQLSIKEGVFYVDGGWETIITKLRDIANHVGVQFLSKKHVLEIEHYEDKQRIYCFDDEVFEVGTVIVTTPPKEACNIIKGAEGTSLQRWSEQSIPVTVTALDIGLRRLPNPTHQFALGLDQPIFFTNQSRAAKLSDDGSIAVSLIKYQNPALEMKHIHEDKGQLESTMDLLHPNWKREVVAQQYLPTIKVVYDFPHINRVETPGPNIPEMPGVYVAGDWAGHDEILADAAVASGKRAALHILKQLESEAVHHGNGAIILEHHHHHH", "soluble on expression in E. coli": "not soluble"}
    ]}
  ]
}
